The record followed here is article PMC10720262 (Cell Reports, 2023).

Substitutions are numbered along the chain they refer to.

The assay concerns the target recombinant full-length PfCSP (Plasmodium falciparum circumsporozoite protein, strain NF54) (Plasmodium falciparum NF54, UniProt P19597).

recombinant full-length PfCSP (Plasmodium falciparum circumsporozoite protein, strain NF54), sequence (P19597 20-375): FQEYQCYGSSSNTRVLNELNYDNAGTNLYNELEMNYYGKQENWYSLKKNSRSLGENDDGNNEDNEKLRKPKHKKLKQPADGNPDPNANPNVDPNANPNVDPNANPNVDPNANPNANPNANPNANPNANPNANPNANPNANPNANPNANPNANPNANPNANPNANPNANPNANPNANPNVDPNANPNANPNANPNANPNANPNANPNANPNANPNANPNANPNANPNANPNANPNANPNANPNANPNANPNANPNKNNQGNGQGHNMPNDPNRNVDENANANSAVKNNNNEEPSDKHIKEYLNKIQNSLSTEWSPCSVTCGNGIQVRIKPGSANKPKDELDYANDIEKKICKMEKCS

B1: CL-437862 (antibody, V domains shown)
VH: QVQLVESGGGVVQPGRSLRLSCAASGFTFSNSGMHWVRQVPGKGLEWVAIIWYDGGNKYYADSVKGRFTISRDNSKNTLYLQMNSLRAEDTAVYYCARAYYDILTSYDKDCCYGMDVWGQGTTVTVSS
VL: not shown
B1: the binding result is “binds”.

B2: CL-437934 (antibody, V domains shown)
VH: B1 VH with E6A, G10A, V40A, K43Q, A97V, D102E, S106T, D108N
VL: not shown
As for B2, the binding result is given as “binds”.

B3: CL-437899 (antibody, V domains shown)
VH: QEQLVESGGGVVQPGRSLRLSCEVSGFTFSNHGLHWVRQAPGKGLEWVAIIWYDGSNKFYAESVKGRFTISRDNSKNRMYLEMNSLRVEDSAVYYCVRAYSRSSSDYKYGMDVWGQGTTVTVSS
VL: DIQMTQSPSTLSASVGDRVIITCRASQSISSWLAWYQQRPGKAPELLIYKASSLETGVPSRFSGSGSGTEFTLTISSLQPDDFATYFCQQYSSYWTFGQGTKVEIK
B3: the binding result was “binds”.

B4: CL-438096 (antibody, V domains shown)
VH: QVVLVESGGGVVQPGRSLRLSCEASGFIFSSRGMHWVRQTPGKGLEWVAIIWYDGSNKFYADSVKGRFTISRDNSKNTLYLQMNSLRAEDTAVYYCARSYRTSLDKKYGMDVWGQGTTVTVSS
VL: B3 VL with I20T, R39K, E45K, T56S, Q79H, S92N
Take B4: the binding result is given as “binds”.

B5: CL-444469 (antibody, V domains shown)
VH: QVQLVESGGGVVQPGRSLRVSCEVSGLTFSNYGMHWVRQAPGKRLEWVAIIWYDGSNKYYADSVKGRFTISRDNSKNTLYLQMNSLRAEDTAVYYCARSYGSGSRGDYYGMDVWGQGTTVTVSS
VL: B3 VL with I20T, Y36F, R39K, E45K, T56S, F87Y, S92Y
As for B5, the binding result is listed as “binds”.

B6: CL-444653 (antibody, V domains shown)
VH: QVQLVESGGGVVQPGRSLRLSCTASGFTFSTYGMHWVRQAPGKGLEWVAIIWYDGGNKFYADSVKGRFTISRDNSKDTLYLQMNSLRAEDTAVYYCAKAWYKVDDKYSMDVWGQGTTVTVSS
VL: B3 VL with I20T, R39K, E45K, T56S, S77G, F87Y, S92I, S93N
Consider B6, for which the binding result is on record as “binds”.

B7: CL-444588 (antibody, V domains shown)
VH: QVQLVESGGGVVQPGRSLRLSCAASGFTFSGYGMHWVRQTPGKGLGWVALIWYDGSNKFYADSVRGRFTISRDNSKNTLYLQMNSLRAEDTAIYYCARSYPSGSRGDKYGMDVWGQGTTVTVSL
VL: B3 VL with I20T, S31T, Y36F, R39K, E45K, T56S, S63T, F87Y, S92N
As for B7, the binding result was “binds”.

B8: CL-437907 (antibody, V domains shown)
VH: QVQLVESGGGVVQPGRSLRLSCVASGFTFSHSGMHWVRQTPGKGLEWVAIIWHDGSIKYYVESVKGRFTISRDNSKNTLYLEMRSLRAEDTAVYFCVRSYSESLYDKYGMDVWGQGTTVTVSS
VL: DIQMTQSPSTLSASVGDRVTISCRASQSISSWLAWFQQKPGKAPKLLIYAASSLQSGVPSRFSGSGSGTDFTLTISSLQPDDFATYYCQQFNSYWTFGQGTKVEVK
Consider B8, for which the binding result is given as “binds”.

B9: CL-444424 (antibody, V domains shown)
VH: QVQLVESGGGVVQPGRSLRLSCTASGFTFSNYGMHWIRQAPGKGLEWVAIIWFDGSSQYYADSVKGRFTISRDNSKNTLYLQMNSLRAEDTAVYYCVRALYDSGSLFDFWGLGTLVTVSS
VL: DIQMTQSPSTLSASVGDRVTITCRASQNISSLLAWYQQKPGKAPKLLIYKASSLESGVPSRFSGNGSGTEFTLTVSSLQPDDFATYSCLQYNNYWTFGQGTKVEIK
In the case of B9, the binding result is “binds”.

B10: CL-444639 (antibody, V domains shown)
VH: QVQLVESGGGVVQPARSLRLSCAASGFTFSSYGMHWVRQAPGKGLEWVAVIWYDGSNKYYADSVKGRFTISRDNSKNTLYLQMNSLRAEDTAVYYCAKVGDFYGSGSYPHYYGMDVWGQGTTVTVSS
VL: not shown
On to B10, for which the binding result was “binds”.

B11: CL-442127 (antibody, V domains shown)
VH: QAQLVESGGGVVQPGKSLRLSCAASRFTFRNYGMHWVRQGPVKGLEWVALIWHDGSNKFYSDSVRDRFTISRDNSKNKLFLQMNSLTADDTALYYCVRSNYDGSGTYGWFGPWGQGTLVTVSS
VL: EIVLTQSPGTLSLSPGERATLSCRASQSVISNYLAWYQQKPGQAPRLLIYGASTRDIGIPDRFSGSGSGTDFTLTISRLEPEDFAVYFCHQYGSSFTFGPGTKVDFK
In the case of B11, the binding result is “binds”.

B12: CL-437092 (antibody, V domains shown)
VH: QVQLVESGGGVVQPGGSLRLSCAASGFTLSSFGIHWVRQAPGKGLEWVALIWHDGSMKYYADSVKGRFTISRDNSKNTVDIQMNSLRVEDTAVYYCARPGIGSPGDHYTMDVWGHGTTVTVSS
VL: not shown
Consider B12, for which the binding result is listed as “binds”.

B13: CL-441816 (antibody, V domains shown)
VH: QEQLVESGGGVVQPGRSLRLSCATSGFTFSTYGLHWVRQSPGKGLEWVTVIWYDGSNKFYADSVKGRFTISRDNSKNTLYLQMNSLRAEDTAVYYCARALYSSRWYGAFDIWGQGTMVTVSS
VL: QSVLTQPPSVSGAPGQRVTISCTGSSSNIGAGYDVHWYQLLPGTAPKLLIYGNSNRPSGVPDRFSGSKSGTSASLAITGLQAEDEADYYCQSYIRSLSGSVFGGGTKLTVL
B13: the binding result is “binds”.

B14: CL-440582 (antibody, V domains shown)
VH: QVQLVESGGGVVQPGRSLRLSCAASGFTLNNYGIHWVRQAPGKGLEWLSLIWYDGSNKFYADSVKGRFTVSRDNSQNTVSLHMSSLSVDDTAVYYCARPGIGVPGDKYTMDVWGQGTTVTVSS
VL: DIQMTQSPSTLSASVGDRVTITCRASQTISAWLAWYQQKLGKAPKILIYKASILESGVPSRFSGSGSGTEFTLTINSLQPDDFATYYCQQYNYDWTFGQGTKVEIN
For B14, the binding result is on record as “binds”.

B15: CL-444691 (antibody, V domains shown)
VH: QVQLVESGGGVVQPGRSLRLSCAASGFTFSNYGMHWVRQAPGKGLEWVAVIWYDGSNKFYADSVKGRFTISRDNSKNTLYLQMNSLRAEDTAVYYCARDGGYNKNSGSYGWFDPWGQGTLVTVSS
VL: DIQMTQSPSTLSASVGDRVTITCRASQSVSTWLAWYQQKPGKAPKLLIYKASSLESGVPSRFSGSGSGTEFTLTISSLQPDDFATYYCQQYNSYFTFGQGTRLEIK
On to B15, for which the binding result was “binds”.

B16: CL-440422 (antibody, V domains shown)
VH: QVQLVESGGGVVQPGRSLRLSCAASGFTFSNFGMHWVRQTPDRGLEWVAIIWFDGSNTFYTDSVKGRFTISRDNYMNTLYLQMNSLRAEDTAVYYCARSFYSDSAGSLFDYWGQGTLVTVSS
VL: DIQMTQSPSTLSASVGDRVTITCRASQNINNWVAWYQQKPGKAPKLLIYKASDLETGVPSRFSGSGSGTEFTLTISGLQPDDFATFYCLQNNHYWTFGQGTKVEIK
On to B16, for which the binding result is recorded as “binds”.

B17: CL-444592 (antibody, V domains shown)
VH: QVQLVESGGGVVQPGRSLRLSCAASGFTFSSYGMHWVRQAPGKGLEWVAVIWYDGSNKYYADSVKGRFTISRDNSKNTLYLQMNSLRAEDTAVYYCARDGNWNYNYYYGMDVWGQGTTVTVSS
VL: DIQLTQSPSFLSASVGDRVTITCWASQGISSYLAWYQQKPGKAPKLLIYAASTLQSGVPSRFSGSGSGTEFTLTISSLQPEDFATYYCQQLNSYPPTFGQGTRLEIK
As for B17, the binding result is given as “binds”.

B18: CL-437492 (antibody, V domains shown)
VH: QEQLVESGGGVVQPGNSLRLSCVASGFTFSNHGMHWVRQAPGKGLEWVAIIWYDGSQKFYSDSVKGRFTISRDNSKNTLYLQMNSLRAEDTAIYYCARVDWSGNDWGWFDPWGQGTLVTVSS
VL: EIVLTQSPDTLSLSPGERATLSCRASQTLSSRHLAWYQQKPGQAPRLLIYGASSRATGIPDRFSGSGSGTDFTLTINRLEPEDFAVFYCQQYGRLWTFGQGTKVEIK
Take B18: the binding result was “binds”.

B19: CL-437716 (antibody, V domains shown)
VH: QVHLVESGGGVVQPGRSLRLSCAASGFIFSNSGMHWVRQVPGKGLEWVAIIWYDGSNKYYADSVKGRFTISRDNSKNTLYLQMNSLRAEDTAVYYCVRAYSSSSSYYYGMDVWGQGTTVTVSS
VL: not shown
As to B19, the binding result is recorded as “binds”.

B20: CL-444387 (antibody, V domains shown)
VH: QVHLVESGGGVVQPGRSLRLSCVASGFSFSSYGMHWVRQAPGKGLEWVAIIWYDGSYTYYADSVKGRFTISRDNSKNTLYLQMNSLRVEDTAVYYCAKVGLSYNGRTGAFDIWGQGTMVTVSS
VL: not shown
Take B20: the binding result was “binds”.

B21: CL-444739 (antibody, V domains shown)
VH: B20 VH with Y57N, T58R, K65Q, V88A, I112V
VL: not shown
As to B21, the binding result was “binds”.

B22: CL-438145 (antibody, V domains shown)
VH: QVQLVESGGGVVQPGRSLRLSCAASGFTFSDYGMHWVRQAPGKGLEWVAIIWYDGSNKYYAASVKDRFIISRDNFKNTLYLQMNSLRAEDTAVYYCARVNFDDSGSWDYWGQGTLATVSS
VL: DIQMTQSPSTLSASVGDRVTITCRASQNINTRLAWYQQKVGTAPKLLIYTASSLESGVPSRFSGSGSGTEFTLTISSLQPDDFATYYCQQYYRYWTFGQGTKVEIK
As for B22, the binding result is on record as “binds”.

B23: CL-440324 (antibody, V domains shown)
VH: QVQLVESGGGVVQPGRSLRLSCAASGFTFRNHGLHWVRQAPGKGLEWVAIIWFDGSNKFYADSVKGRFTISRDNSKNTLYLQMNSLRAEDTAIYYCARVSSHDNGDYGDFDYWGQGTLVTVSS
VL: B15 VL with S28N, V29I, T31N, S77G, N92K, S93T, F95W, R102Q, L103V
B23: the binding result is listed as “binds”.

B24: CL-437762 (antibody, V domains shown)
VH: QVQLVESGGGVVQPGRSLRLSCAASGFTFSNYGMYWVRQAPGKGLEWVAVIWYDGSNKYYADSVKGRFTISRDNSKNTLYLQMNSLRAEDTAFYYCARPQYSGSGSYFDYWGQGTLVTVSS
VL: not shown
B24: the binding result was “binds”.

B25: CL-441734 (antibody, V domains shown)
VH: QVQLVESGGGVVQPGRSLRLSCAASGFTFSSHGMHWVRQAPVKGLEWVAVIWYDGSNKYYADSVKGRFTISRDNSKNTLYLQMNSLRAEDTAVYYCARVEYSRSSGDYYYYGLDVWGQGTTVTVSS
VL: EIVMTQSPATLSVSPGERATLSCRASQSVSSNLAWYQQKPGQAPRLLIYGASTRATGIPARFSGSGSGTEFTLTISSLQSEDFAVYYCQQYDNWWTFGQGTKVEIK
Take B25: the binding result is “binds”.
